# Data published in article doi:10.1101/2022.05.31.494111.
# Like-named read-outs stand apart in the source and are kept apart here.
# Legend:
# [1] = target: minimal CrIFT81_(460-533)/CrIFT74_(460-532) complex (Chlamydomonas reinhardtii) (UniProt Q68RJ5)
# [2] = target: CrIFT81_(152-C)/74_(150-C)/27/25_(1-136) complex (Chlamydomonas reinhardtii) (UniProt Q68RJ5); assay: ITC
# [3] = target: Chlamydomonas reinhardtii RabL2, wild type (Chlamydomonas reinhardtii); assay: ITC
# [4] = target: Chlamydomonas reinhardtii RabL2, wild type (Chlamydomonas reinhardtii); assay: ITC; remark: listed apart in the source
# Chain of minimal CrIFT81_(460-533)/CrIFT74_(460-532) complex (Chlamydomonas reinhardtii) (Q68RJ5 460-533, chain 1 of 2): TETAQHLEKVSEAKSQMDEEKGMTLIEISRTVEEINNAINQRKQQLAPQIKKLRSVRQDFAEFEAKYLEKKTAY
# Chain of minimal CrIFT81_(460-533)/CrIFT74_(460-532) complex (Chlamydomonas reinhardtii) (Q6RCE1 460-532, chain 2 of 2, further chain): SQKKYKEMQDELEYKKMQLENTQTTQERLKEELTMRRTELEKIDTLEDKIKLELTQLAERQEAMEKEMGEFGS
# Chain of CrIFT81_(152-C)/74_(150-C)/27/25_(1-136) complex (Chlamydomonas reinhardtii) (Q68RJ5 152-683, chain 1 of 4): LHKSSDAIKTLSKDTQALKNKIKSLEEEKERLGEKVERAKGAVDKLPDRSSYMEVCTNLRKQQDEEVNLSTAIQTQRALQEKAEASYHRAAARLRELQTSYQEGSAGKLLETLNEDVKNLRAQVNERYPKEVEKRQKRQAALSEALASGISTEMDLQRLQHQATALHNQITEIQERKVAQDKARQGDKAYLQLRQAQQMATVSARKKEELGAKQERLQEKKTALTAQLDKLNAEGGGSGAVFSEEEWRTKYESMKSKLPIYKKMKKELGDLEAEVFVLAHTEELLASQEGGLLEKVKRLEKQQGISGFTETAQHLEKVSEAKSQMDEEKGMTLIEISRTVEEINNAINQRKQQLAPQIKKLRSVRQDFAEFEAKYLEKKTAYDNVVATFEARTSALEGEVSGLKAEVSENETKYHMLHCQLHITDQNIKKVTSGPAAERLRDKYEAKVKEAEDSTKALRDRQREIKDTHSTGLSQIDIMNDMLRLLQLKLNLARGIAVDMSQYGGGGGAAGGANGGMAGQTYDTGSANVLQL
# Chain of CrIFT81_(152-C)/74_(150-C)/27/25_(1-136) complex (Chlamydomonas reinhardtii) (Q6RCE1 150-641, chain 2 of 4, further chain): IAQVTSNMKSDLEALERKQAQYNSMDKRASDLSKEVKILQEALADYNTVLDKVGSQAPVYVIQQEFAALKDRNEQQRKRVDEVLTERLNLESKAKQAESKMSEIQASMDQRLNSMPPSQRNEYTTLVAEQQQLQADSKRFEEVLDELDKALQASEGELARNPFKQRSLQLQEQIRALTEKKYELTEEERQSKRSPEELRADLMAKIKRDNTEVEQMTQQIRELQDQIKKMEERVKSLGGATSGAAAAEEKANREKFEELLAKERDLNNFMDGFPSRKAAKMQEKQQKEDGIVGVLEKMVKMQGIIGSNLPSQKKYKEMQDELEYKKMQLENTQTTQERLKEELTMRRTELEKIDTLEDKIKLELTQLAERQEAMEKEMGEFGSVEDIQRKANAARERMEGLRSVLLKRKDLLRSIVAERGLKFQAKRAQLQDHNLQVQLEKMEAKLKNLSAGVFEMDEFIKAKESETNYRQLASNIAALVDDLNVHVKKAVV
# Chain of CrIFT81_(152-C)/74_(150-C)/27/25_(1-136) complex (Chlamydomonas reinhardtii) (A8HN58 whole entry, chain 3 of 4, further chain): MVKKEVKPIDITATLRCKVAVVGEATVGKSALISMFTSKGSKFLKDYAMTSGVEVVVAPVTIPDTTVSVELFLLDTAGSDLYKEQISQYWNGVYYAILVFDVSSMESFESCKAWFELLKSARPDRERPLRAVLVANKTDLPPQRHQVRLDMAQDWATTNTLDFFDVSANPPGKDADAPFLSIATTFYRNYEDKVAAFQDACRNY
# Chain of CrIFT81_(152-C)/74_(150-C)/27/25_(1-136) complex (Chlamydomonas reinhardtii) (B8LIX8 1-136, chain 4 of 4, further chain): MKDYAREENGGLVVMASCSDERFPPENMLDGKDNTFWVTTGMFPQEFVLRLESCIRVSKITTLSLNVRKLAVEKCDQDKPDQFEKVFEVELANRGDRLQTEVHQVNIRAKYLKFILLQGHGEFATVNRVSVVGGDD
substance,measurement,setting,value
"Chlamydomonas reinhardtii RabL2, wild type (natural protein)",GTPase rate of RabL2 with IFT81 (460-533)/74 (460-532) against RabL2 alone,[1],5 fold
Chlamydomonas reinhardtii RabL2 Q83L (GTP-locked mutant) (natural protein),Kd,[2],0.59 µM
Chlamydomonas reinhardtii CEP19 residues 1-208 (domain or fragment),Kd,[3],0.28 µM
same,Kd,[4],12.7 µM
